# Laboratory results reported in US20240261333A1, “NOVEL TARGETS FOR ENHANCING ANTI-TUMOR IMMUNITY” (THE BROAD INSTITUTE, INC., priority 2021, published 2024).
# Key:
# EMD = EMD (UniProt P50402); experiment: co-IP, anti-FLAG, N-FLAG B3GNT2 cell lysate, mass spectrometry
# RPL19 = RPL19 (UniProt P84098); experiment: as above
# PSMA7 = PSMA7 (UniProt O14818); experiment: as above
# HIST1H1E = HIST1H1E (UniProt P10412); experiment: as above
# POF1B = POF1B (UniProt Q8WVV4); experiment: as above
# CSPG4 = CSPG4 (UniProt Q6UVK1); experiment: co-IP, anti-FLAG, lysate of N-FLAG B3GNT2 cells, mass spectrometry
# RAB1B = RAB1B (UniProt Q9H0U4); experiment: as above
# SLC25A10 = SLC25A10 (UniProt Q9UBX3); experiment: as above
# PSMA1 = PSMA1 (UniProt P25786); experiment: as above
# SLC25A1 = SLC25A1 (UniProt P53007); experiment: as above
# PRR4 = PRR4 (UniProt Q16378); experiment: as above
# CNP = CNP (UniProt P09543); experiment: as above
# SMN1 = SMN1 (UniProt Q16637); experiment: as above
# DPM1 = DPM1 (UniProt O60762); experiment: as above
# ALDOA = ALDOA (UniProt P04075); experiment: as above
# SERPINE2 = SERPINE2 (UniProt P07093); experiment: as above
# LOXL4 = LOXL4 (UniProt Q96JB6); experiment: as above
# SRSF7 = SRSF7 (UniProt Q16629); experiment: as above
# RPL18 (human) = RPL18 (human) (UniProt Q07020); experiment: co-IP, anti-FLAG, lysate of cells with N-FLAG B3GNT2; mass spectrometry
# RPL13 (human) = RPL13 (human) (UniProt P26373); experiment: as above
# GGCT (human) = GGCT (human) (UniProt O75223); experiment: as above
# MOV10 (human) = biological target: T1, MOV10 (human) (UniProt Q9HCE1); experiment: as above
# T1 sequence (looked up): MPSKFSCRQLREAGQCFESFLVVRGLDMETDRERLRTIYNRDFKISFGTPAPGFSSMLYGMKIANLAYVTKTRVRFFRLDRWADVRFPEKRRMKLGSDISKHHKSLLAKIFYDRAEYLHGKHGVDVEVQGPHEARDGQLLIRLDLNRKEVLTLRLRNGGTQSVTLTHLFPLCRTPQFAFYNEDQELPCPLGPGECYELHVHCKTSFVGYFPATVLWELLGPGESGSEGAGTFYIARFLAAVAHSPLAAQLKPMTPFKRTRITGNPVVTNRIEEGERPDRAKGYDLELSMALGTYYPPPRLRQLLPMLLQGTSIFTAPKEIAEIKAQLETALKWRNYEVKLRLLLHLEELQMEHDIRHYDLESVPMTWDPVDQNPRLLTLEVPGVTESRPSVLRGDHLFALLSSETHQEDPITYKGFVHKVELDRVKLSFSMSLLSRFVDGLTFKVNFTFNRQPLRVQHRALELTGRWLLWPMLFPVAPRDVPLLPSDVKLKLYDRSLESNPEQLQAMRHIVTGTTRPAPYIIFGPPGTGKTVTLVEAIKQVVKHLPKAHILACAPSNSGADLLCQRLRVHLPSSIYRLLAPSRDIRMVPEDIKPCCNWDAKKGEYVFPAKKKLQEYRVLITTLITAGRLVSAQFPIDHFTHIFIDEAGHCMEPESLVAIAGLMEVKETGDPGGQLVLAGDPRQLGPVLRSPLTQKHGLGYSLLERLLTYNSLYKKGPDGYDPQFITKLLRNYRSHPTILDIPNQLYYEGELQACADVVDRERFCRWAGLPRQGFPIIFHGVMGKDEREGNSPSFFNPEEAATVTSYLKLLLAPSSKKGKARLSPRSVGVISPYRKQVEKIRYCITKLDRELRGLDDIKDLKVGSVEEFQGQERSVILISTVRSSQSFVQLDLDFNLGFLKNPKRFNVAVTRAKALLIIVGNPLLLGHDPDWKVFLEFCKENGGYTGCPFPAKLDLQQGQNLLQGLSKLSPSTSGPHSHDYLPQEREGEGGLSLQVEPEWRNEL
# HSPA8 (human) = HSPA8 (human) (UniProt P11142); experiment: as above
# HUWE1 (human) = HUWE1 (human) (UniProt Q7Z6Z7); experiment: as above
# C1orf68 (human) = C1orf68 (human) (UniProt Q5T750); experiment: as above
# SAMM50 (human) = SAMM50 (human) (UniProt Q9Y512); experiment: as above
# CAT (human) = CAT (human) (UniProt P04040); experiment: as above
# Chain of PSMA1 (P25786 whole entry): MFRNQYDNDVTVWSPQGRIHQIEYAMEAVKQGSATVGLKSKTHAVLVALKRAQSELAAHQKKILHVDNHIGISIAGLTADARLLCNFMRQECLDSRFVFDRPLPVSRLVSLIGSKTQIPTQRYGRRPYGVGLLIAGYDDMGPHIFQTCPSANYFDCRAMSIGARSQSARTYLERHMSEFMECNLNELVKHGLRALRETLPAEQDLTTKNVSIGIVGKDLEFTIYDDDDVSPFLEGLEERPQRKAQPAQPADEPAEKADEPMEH
# Chain of SLC25A10 (Q9UBX3 other isoform, or with tags, fused parts or gaps limits assumed): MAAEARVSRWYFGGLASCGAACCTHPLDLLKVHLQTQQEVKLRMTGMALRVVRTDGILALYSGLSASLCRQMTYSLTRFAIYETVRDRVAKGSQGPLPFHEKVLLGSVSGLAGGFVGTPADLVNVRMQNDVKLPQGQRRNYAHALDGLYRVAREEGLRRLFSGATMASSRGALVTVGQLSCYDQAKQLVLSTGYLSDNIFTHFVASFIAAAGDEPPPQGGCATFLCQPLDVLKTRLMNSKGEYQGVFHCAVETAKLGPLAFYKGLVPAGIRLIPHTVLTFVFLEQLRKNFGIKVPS
# Chain of C1orf68 (human) (Q5T750 whole entry): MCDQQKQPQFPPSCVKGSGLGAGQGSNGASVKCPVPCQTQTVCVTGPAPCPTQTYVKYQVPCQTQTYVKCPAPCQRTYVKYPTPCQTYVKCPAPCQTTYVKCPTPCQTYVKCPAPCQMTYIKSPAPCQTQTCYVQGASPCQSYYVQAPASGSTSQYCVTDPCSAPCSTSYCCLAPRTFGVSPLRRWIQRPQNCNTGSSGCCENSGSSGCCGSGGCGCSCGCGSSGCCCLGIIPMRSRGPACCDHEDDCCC
# Chain of HSPA8 (human) (P11142 2-646 limits assumed): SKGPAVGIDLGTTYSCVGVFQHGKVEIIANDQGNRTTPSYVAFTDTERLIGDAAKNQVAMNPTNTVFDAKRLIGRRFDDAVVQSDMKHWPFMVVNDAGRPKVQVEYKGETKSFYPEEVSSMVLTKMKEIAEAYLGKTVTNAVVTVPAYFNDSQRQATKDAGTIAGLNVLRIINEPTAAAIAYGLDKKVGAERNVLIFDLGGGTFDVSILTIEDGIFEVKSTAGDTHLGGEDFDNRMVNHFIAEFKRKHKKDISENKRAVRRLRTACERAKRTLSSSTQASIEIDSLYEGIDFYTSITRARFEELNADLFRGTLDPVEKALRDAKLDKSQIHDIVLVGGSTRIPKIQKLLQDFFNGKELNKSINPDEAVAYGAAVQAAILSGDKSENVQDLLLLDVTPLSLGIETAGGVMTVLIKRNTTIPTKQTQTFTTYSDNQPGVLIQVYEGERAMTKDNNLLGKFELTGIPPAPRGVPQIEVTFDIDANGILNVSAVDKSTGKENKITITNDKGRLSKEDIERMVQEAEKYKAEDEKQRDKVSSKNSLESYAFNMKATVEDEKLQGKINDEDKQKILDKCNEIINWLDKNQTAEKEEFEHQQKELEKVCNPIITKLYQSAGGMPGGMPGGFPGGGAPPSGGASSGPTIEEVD
# Chain of SRSF7 (Q16629 whole entry): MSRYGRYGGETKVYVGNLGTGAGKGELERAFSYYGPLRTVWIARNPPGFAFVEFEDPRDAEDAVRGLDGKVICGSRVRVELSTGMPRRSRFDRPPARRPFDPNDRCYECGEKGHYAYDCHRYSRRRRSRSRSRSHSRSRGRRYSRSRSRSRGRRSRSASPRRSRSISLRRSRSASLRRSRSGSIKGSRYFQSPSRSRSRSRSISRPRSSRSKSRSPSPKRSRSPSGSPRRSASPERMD
# Chain of GGCT (human) (O75223 whole entry): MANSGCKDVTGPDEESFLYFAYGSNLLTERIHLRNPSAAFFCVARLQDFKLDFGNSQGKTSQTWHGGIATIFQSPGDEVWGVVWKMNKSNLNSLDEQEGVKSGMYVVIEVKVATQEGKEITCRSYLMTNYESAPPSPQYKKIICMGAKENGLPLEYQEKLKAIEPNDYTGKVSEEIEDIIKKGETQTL
# Chain of PSMA7 (O14818 whole entry): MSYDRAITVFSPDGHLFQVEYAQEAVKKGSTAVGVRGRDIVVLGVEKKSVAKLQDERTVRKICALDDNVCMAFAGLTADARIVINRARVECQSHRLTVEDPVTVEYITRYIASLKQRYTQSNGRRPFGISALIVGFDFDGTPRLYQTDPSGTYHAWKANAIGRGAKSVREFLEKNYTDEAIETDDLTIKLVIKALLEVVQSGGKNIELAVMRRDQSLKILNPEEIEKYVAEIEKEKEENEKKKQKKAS
# Chain of EMD (P50402 whole entry): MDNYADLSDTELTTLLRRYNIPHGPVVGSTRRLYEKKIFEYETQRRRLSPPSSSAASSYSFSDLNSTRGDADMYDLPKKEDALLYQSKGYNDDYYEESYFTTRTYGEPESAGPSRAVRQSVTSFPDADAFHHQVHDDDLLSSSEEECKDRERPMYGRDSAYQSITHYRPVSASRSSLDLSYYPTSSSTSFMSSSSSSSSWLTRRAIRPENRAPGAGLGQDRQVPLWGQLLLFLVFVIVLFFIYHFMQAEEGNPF
# Chain of POF1B (Q8WVV4 other isoform, or with tags, fused parts or gaps limits assumed): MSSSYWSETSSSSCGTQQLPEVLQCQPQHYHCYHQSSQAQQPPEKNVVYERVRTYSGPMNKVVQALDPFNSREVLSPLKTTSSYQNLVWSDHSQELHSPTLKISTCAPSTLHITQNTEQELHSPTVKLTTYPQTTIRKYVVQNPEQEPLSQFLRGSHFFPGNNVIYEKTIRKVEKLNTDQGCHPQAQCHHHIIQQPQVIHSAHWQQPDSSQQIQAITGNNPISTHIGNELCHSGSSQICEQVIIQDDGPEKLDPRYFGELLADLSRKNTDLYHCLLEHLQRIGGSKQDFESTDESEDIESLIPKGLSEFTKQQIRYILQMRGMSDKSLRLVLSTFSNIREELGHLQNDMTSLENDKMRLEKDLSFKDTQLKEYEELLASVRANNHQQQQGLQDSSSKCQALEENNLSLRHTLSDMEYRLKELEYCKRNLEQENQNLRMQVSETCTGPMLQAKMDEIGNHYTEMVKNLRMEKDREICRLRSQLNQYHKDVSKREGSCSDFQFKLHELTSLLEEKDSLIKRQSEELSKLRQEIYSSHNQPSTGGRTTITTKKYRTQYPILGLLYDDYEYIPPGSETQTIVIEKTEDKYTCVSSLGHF
# Chain of SERPINE2 (P07093 20-398 limits assumed): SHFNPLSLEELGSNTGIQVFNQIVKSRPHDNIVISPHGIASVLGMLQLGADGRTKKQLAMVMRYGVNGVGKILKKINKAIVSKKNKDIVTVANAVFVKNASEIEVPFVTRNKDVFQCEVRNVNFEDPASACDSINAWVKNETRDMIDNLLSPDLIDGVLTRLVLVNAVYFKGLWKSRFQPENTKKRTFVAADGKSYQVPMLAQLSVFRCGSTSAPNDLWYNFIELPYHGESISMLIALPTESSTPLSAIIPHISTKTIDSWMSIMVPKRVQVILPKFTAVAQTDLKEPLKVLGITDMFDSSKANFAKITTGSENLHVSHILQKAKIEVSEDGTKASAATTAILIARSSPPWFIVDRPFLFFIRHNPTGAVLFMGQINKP
# Chain of PRR4 (Q16378 17-134 limits assumed): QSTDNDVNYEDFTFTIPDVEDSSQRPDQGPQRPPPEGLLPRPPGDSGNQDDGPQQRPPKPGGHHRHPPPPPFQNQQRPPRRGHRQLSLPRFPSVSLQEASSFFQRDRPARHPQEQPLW
# Chain of SMN1 (Q16637 other isoform, or with tags, fused parts or gaps limits assumed): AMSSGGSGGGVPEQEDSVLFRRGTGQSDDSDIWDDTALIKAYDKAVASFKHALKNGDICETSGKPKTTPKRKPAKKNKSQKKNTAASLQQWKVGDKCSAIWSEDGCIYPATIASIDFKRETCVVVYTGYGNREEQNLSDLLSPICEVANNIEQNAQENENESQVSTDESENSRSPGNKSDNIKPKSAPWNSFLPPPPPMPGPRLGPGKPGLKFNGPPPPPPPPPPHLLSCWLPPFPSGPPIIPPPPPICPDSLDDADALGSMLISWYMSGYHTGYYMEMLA
# Chain of CNP (P09543 21-418 limits assumed): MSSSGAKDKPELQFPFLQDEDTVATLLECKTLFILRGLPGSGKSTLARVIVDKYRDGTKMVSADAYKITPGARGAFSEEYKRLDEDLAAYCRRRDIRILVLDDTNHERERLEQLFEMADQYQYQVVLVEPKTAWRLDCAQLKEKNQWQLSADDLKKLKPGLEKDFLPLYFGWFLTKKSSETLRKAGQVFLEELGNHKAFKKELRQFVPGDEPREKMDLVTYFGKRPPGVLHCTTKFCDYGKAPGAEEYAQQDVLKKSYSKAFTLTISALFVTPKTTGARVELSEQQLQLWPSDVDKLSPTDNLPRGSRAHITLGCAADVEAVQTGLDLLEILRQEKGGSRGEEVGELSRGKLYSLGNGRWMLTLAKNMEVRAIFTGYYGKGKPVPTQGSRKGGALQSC
# Chain of ALDOA (P04075 other isoform, or with tags, fused parts or gaps limits assumed): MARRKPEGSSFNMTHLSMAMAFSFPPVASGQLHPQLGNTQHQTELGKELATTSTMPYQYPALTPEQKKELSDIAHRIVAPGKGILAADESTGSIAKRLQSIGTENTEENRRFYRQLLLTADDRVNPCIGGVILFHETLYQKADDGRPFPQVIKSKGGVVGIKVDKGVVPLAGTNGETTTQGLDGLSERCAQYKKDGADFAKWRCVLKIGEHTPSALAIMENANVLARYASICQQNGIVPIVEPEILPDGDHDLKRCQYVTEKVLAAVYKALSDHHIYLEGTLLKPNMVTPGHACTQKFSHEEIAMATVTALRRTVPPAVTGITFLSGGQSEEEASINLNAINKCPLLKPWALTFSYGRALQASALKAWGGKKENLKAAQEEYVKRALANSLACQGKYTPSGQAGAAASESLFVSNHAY
# Chain of HIST1H1E (P10412 2-219 limits assumed): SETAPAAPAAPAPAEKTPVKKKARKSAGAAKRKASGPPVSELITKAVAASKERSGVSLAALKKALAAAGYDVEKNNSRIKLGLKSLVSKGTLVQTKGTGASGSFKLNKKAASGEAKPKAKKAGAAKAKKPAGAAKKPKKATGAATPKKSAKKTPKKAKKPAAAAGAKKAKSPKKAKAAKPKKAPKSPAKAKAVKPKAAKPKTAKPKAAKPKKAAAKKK
substance,measurement,setting,value
N-terminal FLAG tagged B3GNT2 (from UniProt Q9NY97 1-397) (enzyme),co-IP mass spectrometry count,EMD,2
same,co-IP mass spectrometry count,RPL19,8
same,co-IP mass spectrometry count,PSMA7,4
same,co-IP mass spectrometry count,HIST1H1E,6
same,co-IP mass spectrometry count,POF1B,5
same,co-IP/MS count,CSPG4,2
same,co-IP/MS count,RAB1B,0
same,co-IP/MS count,SLC25A10,5
same,co-IP/MS count,PSMA1,2
same,co-IP/MS count,SLC25A1,5
same,co-IP/MS count,PRR4,2
same,co-IP/MS count,CNP,5
same,co-IP/MS count,SMN1,10
same,co-IP/MS count,DPM1,4
same,co-IP/MS count,ALDOA,2
same,co-IP/MS count,SERPINE2,4
same,co-IP/MS count,LOXL4,5
same,co-IP/MS count,SRSF7,2
same,co-IP mass spectrometry count,RPL18 (human),11
same,co-IP mass spectrometry count,RPL13 (human),15
same,co-IP mass spectrometry count,GGCT (human),3
same,co-IP mass spectrometry count,MOV10 (human),4
same,co-IP mass spectrometry count,HSPA8 (human),41
same,co-IP mass spectrometry count,HUWE1 (human),3
same,co-IP mass spectrometry count,C1orf68 (human),13
same,co-IP mass spectrometry count,SAMM50 (human),3
same,co-IP mass spectrometry count,CAT (human),6
